Test results from publication doi:10.1101/396861.

Target: T1, AtHYL1-FL (HYL1/DRB1 full length) (Arabidopsis thaliana, UniProt O04492 1-419)
T1 sequence: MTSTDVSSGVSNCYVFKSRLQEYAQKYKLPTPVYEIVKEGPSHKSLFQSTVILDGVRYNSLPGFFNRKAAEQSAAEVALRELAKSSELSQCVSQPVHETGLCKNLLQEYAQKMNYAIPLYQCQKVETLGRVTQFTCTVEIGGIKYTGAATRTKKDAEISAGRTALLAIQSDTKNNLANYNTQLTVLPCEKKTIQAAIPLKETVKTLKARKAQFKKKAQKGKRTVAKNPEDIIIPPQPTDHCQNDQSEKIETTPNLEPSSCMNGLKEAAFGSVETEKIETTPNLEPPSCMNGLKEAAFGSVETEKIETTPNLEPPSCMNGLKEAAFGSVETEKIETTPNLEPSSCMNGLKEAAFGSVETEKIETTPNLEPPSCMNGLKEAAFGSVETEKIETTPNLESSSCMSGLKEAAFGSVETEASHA
Assay: EMSA

GCCCTGCAACCGAGACCACGCTTATGGAGCCTGGGACGTGGTCTCGGTTG (structured_DNA) [50-nt DNA hairpin (dsDNA hairpin loop)]: binds.
